Data from patent US20120172295A1 (INDIANA UNIVERSITY RESEARCH AND TECHNOLOGY, published 2012).
Where two headings read alike, the source gives them in different places. Positions of bridges follow the written chain, without caps; N, C: chain ends. Non-standard residues stand in square brackets, D forms with d. Groups on a side chain read outwards from the residue. No end group written: not given here. *: point of attachment. Palmitoyl = CCCCCCCCCCCCCCCC(=O)*; Aib = CC(C)(N)C(=O)O

How the values were obtained:
Assay in all cases: cell-based or functional assay
GLP-1 receptor [1] = target: T1, GLP-1 receptor (UniProt P43220 24-463, limits assumed)
glucagon receptor [2] = target: T2, glucagon receptor (UniProt P47871 26-477, limits assumed)
T2 sequence (P47871 26-477 limits assumed): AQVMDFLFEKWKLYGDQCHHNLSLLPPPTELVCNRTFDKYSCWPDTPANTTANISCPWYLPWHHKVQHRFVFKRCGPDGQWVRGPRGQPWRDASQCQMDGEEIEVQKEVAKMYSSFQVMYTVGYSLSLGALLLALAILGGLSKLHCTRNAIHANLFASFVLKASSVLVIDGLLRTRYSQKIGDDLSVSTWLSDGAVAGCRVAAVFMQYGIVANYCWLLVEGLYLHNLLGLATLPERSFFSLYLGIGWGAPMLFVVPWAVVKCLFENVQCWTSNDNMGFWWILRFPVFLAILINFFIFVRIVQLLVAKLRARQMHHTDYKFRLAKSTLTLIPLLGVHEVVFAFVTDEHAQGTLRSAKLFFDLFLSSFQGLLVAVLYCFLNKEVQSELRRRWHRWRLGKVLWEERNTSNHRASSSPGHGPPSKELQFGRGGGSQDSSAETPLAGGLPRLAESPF

GLP-1 receptor [3] = target: T1, GLP-1 receptor; remark: listed apart in the source
GIP receptor [4] = target: T3, GIP receptor (UniProt P48546 22-466)
T3 sequence (looked up): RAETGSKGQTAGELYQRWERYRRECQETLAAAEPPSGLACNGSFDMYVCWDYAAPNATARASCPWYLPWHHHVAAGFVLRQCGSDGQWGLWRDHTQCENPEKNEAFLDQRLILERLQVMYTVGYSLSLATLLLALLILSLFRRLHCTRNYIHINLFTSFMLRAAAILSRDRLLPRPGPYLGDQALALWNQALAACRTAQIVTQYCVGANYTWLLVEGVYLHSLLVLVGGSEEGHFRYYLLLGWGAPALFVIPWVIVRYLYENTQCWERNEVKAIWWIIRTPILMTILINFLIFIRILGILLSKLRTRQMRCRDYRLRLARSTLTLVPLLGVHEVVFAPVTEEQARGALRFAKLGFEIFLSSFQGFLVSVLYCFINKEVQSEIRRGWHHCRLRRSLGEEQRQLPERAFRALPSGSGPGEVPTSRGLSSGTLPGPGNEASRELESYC

GLP-1 receptor [5] = target: T1, GLP-1 receptor; remark: listed apart in the source
glucagon receptor [6] = target: T2, glucagon receptor; remark: listed apart in the source
glucagon receptor [7] = target: T2, glucagon receptor; remark: listed apart in the source
GLP-1 receptor [8] = target: T1, GLP-1 receptor; remark: listed apart in the source
glucagon receptor [9] = target: T2, glucagon receptor; remark: listed apart in the source
GLP-1 receptor [10] = target: T1, GLP-1 receptor; remark: listed apart in the source
GIP receptor [11] = target: T3, GIP receptor; remark: listed apart in the source
GLP-1 receptor [12] = target: T1, GLP-1 receptor; remark: listed apart in the source
glucagon receptor [13] = target: T2, glucagon receptor; remark: listed apart in the source
GIP receptor [14] = target: T3, GIP receptor; remark: listed apart in the source
GLP-1 receptor [15] = target: T1, GLP-1 receptor; remark: listed apart in the source
glucagon receptor [16] = target: T2, glucagon receptor; remark: listed apart in the source
GLP-1 receptor [17] = target: T1, GLP-1 receptor; remark: listed apart in the source
glucagon receptor [18] = target: T2, glucagon receptor; remark: listed apart in the source
GLP-1 receptor [19] = target: T1, GLP-1 receptor; remark: listed apart in the source
glucagon receptor [20] = target: T2, glucagon receptor; remark: listed apart in the source

B1: Glucagon (1-29a) Aib2 Lys10-Trp-C16 Aib16 Aib20 Cys24 (peptide)
peptide: H[Aib]QGTFTSDK([Trp-Palmitoyl])SKYLD[Aib]RRA[Aib]DFVCWLMNT-NH2
modifications: N-terminus assumed
SMILES: CCCCCCCCCCCCCCCC(=O)N[C@@H](Cc1c[nH]c2ccccc12)C(=O)NCCCC[C@H](NC(=O)[C@H](CC(=O)O)NC(=O)[C@H](CO)NC(=O)[C@@H](NC(=O)[C@H](Cc1ccccc1)NC(=O)[C@@H](NC(=O)CNC(=O)[C@H](CCC(N)=O)NC(=O)C(C)(C)NC(=O)[C@@H](N)Cc1c[nH]cn1)[C@@H](C)O)[C@@H](C)O)C(=O)N[C@@H](CO)C(=O)N[C@@H](CCCCN)C(=O)N[C@@H](Cc1ccc(O)cc1)C(=O)N[C@@H](CC(C)C)C(=O)N[C@@H](CC(=O)O)C(=O)NC(C)(C)C(=O)N[C@@H](CCCNC(=N)N)C(=O)N[C@@H](CCCNC(=N)N)C(=O)N[C@@H](C)C(=O)NC(C)(C)C(=O)N[C@@H](CC(=O)O)C(=O)N[C@@H](Cc1ccccc1)C(=O)N[C@H](C(=O)N[C@@H](CS)C(=O)N[C@@H](Cc1c[nH]c2ccccc12)C(=O)N[C@@H](CC(C)C)C(=O)N[C@@H](CCSC)C(=O)N[C@@H](CC(N)=O)C(=O)N[C@H](C(N)=O)[C@@H](C)O)C(C)C
- EC50 (GLP-1 receptor [1]): 1150 pM
- EC50 (glucagon receptor [2]): 2060 pM

Binder: HSQGTFTSDYSKYLEERRAQDFVQWLMNT-NH2 [E15, E16 Gluc-NH2]
- Percent Potency Relative to Native Ligand (GLP-1 receptor [3]): 9.2%

Binder: Y[Aib]QGTFISDYSIYLDKQAA[Aib]EFVNWLLAGGPSSGAPPPSK(Palmitoyl)-NH2 [mt-358]
- % Relative activity (GIP receptor [4]): 314%
- % Relative activity (GLP-1 receptor [5]): 11.9%
- % Relative activity (glucagon receptor [6]): 710%

Binder: HSQGTFTSDYSKYLDSRRAQDFVQWLMNTGPSSGAPPPS (C-terminal amide) [Glucagon-Cex]
- cAMP induction EC50 (glucagon receptor [7]): 250 pM

B2: Glucagon (1-29a) Aib2 Aib16 (peptide)
peptide: H[Aib]QGTFTSDYSKYLD[Aib]RRAQDFVQWLMNT-NH2
modifications: N-terminus assumed
SMILES: CSCC[C@H](NC(=O)[C@H](CC(C)C)NC(=O)[C@H](Cc1c[nH]c2ccccc12)NC(=O)[C@H](CCC(N)=O)NC(=O)[C@@H](NC(=O)[C@H](Cc1ccccc1)NC(=O)[C@H](CC(=O)O)NC(=O)[C@H](CCC(N)=O)NC(=O)[C@H](C)NC(=O)[C@H](CCCNC(=N)N)NC(=O)[C@H](CCCNC(=N)N)NC(=O)C(C)(C)NC(=O)[C@H](CC(=O)O)NC(=O)[C@H](CC(C)C)NC(=O)[C@H](Cc1ccc(O)cc1)NC(=O)[C@H](CCCCN)NC(=O)[C@H](CO)NC(=O)[C@H](Cc1ccc(O)cc1)NC(=O)[C@H](CC(=O)O)NC(=O)[C@H](CO)NC(=O)[C@@H](NC(=O)[C@H](Cc1ccccc1)NC(=O)[C@@H](NC(=O)CNC(=O)[C@H](CCC(N)=O)NC(=O)C(C)(C)NC(=O)[C@@H](N)Cc1c[nH]cn1)[C@@H](C)O)[C@@H](C)O)C(C)C)C(=O)N[C@@H](CC(N)=O)C(=O)N[C@H](C(N)=O)[C@@H](C)O
- EC50 (GLP-1 receptor [8]): 100 pM
- EC50 (glucagon receptor [9]): 90 pM

Binder: HSQGTFTSDYSRYLDSRRAQDFVQWLMNK [Glucagon R12 K29]
- cAMP induction EC50 (GLP-1 receptor [10]): 410 pM
- cAMP induction EC50 (glucagon receptor [7]): 810 pM

Binder: HXQGTFTSDYSKYLDEQAAKEFIAWLMNGGPSSGAPPPSK (acylated Lys at 40) [mt-364]
- % Relative activity (GIP receptor [4]): 15.7%
- % Relative activity (GLP-1 receptor [5]): 355%
- % Relative activity (glucagon receptor [6]): 350%
- % Relative activity (GIP receptor [11]): 15.7%
- % Relative activity (GLP-1 receptor [12]): 355%
- EC50 (GLP-1 receptor [12]): 7 pM
- % Relative activity (glucagon receptor [13]): 350%
- EC50 (glucagon receptor [13]): 18.3 pM
- % Relative activity (GIP receptor [14]): 15.7%
- % Relative activity (GLP-1 receptor [15]): 355%
- % Relative activity (glucagon receptor [16]): 350%

B3: E16K20 Gluc-NH2 Lac (peptide)
peptide: HSQGTFTSDYSKYLDERRAKDFVQWLMNT-NH2
modifications: lactam 16-20; N-terminus assumed
SMILES: CSCC[C@H](NC(=O)[C@H](CC(C)C)NC(=O)[C@H](Cc1c[nH]c2ccccc12)NC(=O)[C@H](CCC(N)=O)NC(=O)[C@@H](NC(=O)[C@H](Cc1ccccc1)NC(=O)[C@H](CC(=O)O)NC(=O)[C@@H]1CCCCNC(=O)CC[C@H](NC(=O)[C@H](CC(=O)O)NC(=O)[C@H](CC(C)C)NC(=O)[C@H](Cc2ccc(O)cc2)NC(=O)[C@H](CCCCN)NC(=O)[C@H](CO)NC(=O)[C@H](Cc2ccc(O)cc2)NC(=O)[C@H](CC(=O)O)NC(=O)[C@H](CO)NC(=O)[C@@H](NC(=O)[C@H](Cc2ccccc2)NC(=O)[C@@H](NC(=O)CNC(=O)[C@H](CCC(N)=O)NC(=O)[C@H](CO)NC(=O)[C@@H](N)Cc2c[nH]cn2)[C@@H](C)O)[C@@H](C)O)C(=O)N[C@@H](CCCNC(=N)N)C(=O)N[C@@H](CCCNC(=N)N)C(=O)N[C@@H](C)C(=O)N1)C(C)C)C(=O)N[C@@H](CC(N)=O)C(=O)N[C@H](C(N)=O)[C@@H](C)O
- Percent Potency Relative to Native Ligand (GLP-1 receptor [17]): 63%
- Percent Potency Relative to Native Ligand (glucagon receptor [18]): 181%

Binder: H[Aib]QGTFTSDK([Trp-Palmitoyl])SKYLD[Aib]RRA[Aib]DFVC(PEG 40 kDa)WLMNT-NH2 [Glucagon (1-29a) Aib2 Lys10-Trp-C16 Aib16 Aib20 Cys24-40 kD]
- EC50 (GLP-1 receptor [1]): 600 pM
- EC50 (glucagon receptor [2]): 2370 pM

B4: peptide of SEQ ID NO: 555 (peptide)
peptide: YSQGTFTSDYSKYLDEQAAKEFVNWLMNGGPSSGAPPPS-NH2
modifications: lactam 16-20; N-terminus assumed
SMILES: CSCC[C@H](NC(=O)[C@H](CC(C)C)NC(=O)[C@H](Cc1c[nH]c2ccccc12)NC(=O)[C@H](CC(N)=O)NC(=O)[C@@H](NC(=O)[C@H](Cc1ccccc1)NC(=O)[C@H](CCC(=O)O)NC(=O)[C@@H]1CCCCNC(=O)CC[C@H](NC(=O)[C@H](CC(=O)O)NC(=O)[C@H](CC(C)C)NC(=O)[C@H](Cc2ccc(O)cc2)NC(=O)[C@H](CCCCN)NC(=O)[C@H](CO)NC(=O)[C@H](Cc2ccc(O)cc2)NC(=O)[C@H](CC(=O)O)NC(=O)[C@H](CO)NC(=O)[C@@H](NC(=O)[C@H](Cc2ccccc2)NC(=O)[C@@H](NC(=O)CNC(=O)[C@H](CCC(N)=O)NC(=O)[C@H](CO)NC(=O)[C@@H](N)Cc2ccc(O)cc2)[C@@H](C)O)[C@@H](C)O)C(=O)N[C@@H](CCC(N)=O)C(=O)N[C@@H](C)C(=O)N[C@@H](C)C(=O)N1)C(C)C)C(=O)N[C@@H](CC(N)=O)C(=O)NCC(=O)NCC(=O)N1CCC[C@H]1C(=O)N[C@@H](CO)C(=O)N[C@@H](CO)C(=O)NCC(=O)N[C@@H](C)C(=O)N1CCC[C@H]1C(=O)N1CCC[C@H]1C(=O)N1CCC[C@H]1C(=O)N[C@@H](CO)C(N)=O
- EC50 (GLP-1 receptor [19]): 62 pM
- EC50 (glucagon receptor [20]): 44 pM
